Results on ten molecules are retold here after publication PMC5368077, “Structural and functional insights into thermally stable cytochrome c′ from a thermophile” (Protein Science : A Publication of the Protein Society, 2017).

For assay [1], the target named is recombinant PHCP wild-type (Hydrogenophilus thermoluteolus). The experiment in a line: AUC; sedimentation velocity, 5 μM protein, 10 mM Tris-HCl (pH 7.5) with 100 mM NaCl, 20°C, 42,000 rpm, c(s) model in SEDFIT; n = 1.
The target in assay [2] is PHCP F71D variant (Hydrogenophilus thermoluteolus). Put plainly: AUC; sedimentation velocity of the single variants, data not shown; the same analysis as for the wild-type.
Assay [3] concerns the target PHCP A20G variant (Hydrogenophilus thermoluteolus). The assay is described as above.
Assay [4] has as its target T1, PHCP (Hydrogenophilus thermoluteolus cytochrome c') (Hydrogenophilus thermoluteolus, UniProt F7J213).
T1 construct: gene cytc; mature protein, N-terminal DALKP; authentic protein from H. thermoluteolus cells for crystal
T1 sequence (F7J213 20-154): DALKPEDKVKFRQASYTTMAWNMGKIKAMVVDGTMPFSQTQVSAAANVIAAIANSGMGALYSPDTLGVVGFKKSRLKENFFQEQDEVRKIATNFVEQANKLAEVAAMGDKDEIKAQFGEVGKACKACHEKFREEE
The experiment in a line: visible absorption spectroscopy. The class given is binding. The conditions noted are these: reduced (dithionite) protein 6 uM; 0.5% (v/v) ligand; 10 mM potassium phosphate pH 7.0; 25 C; isomer of butyl group not stated.

Assay [5] concerns the target PHCP F11T/T18F/F71D triple variant (Hydrogenophilus thermoluteolus). Put plainly: AUC; sedimentation velocity, 5 μM protein, 10 mM Tris-HCl (pH 7.5) with 100 mM NaCl, 20°C, 42,000 rpm, c(s) model in SEDFIT; n = 1.
In assay [6] the target is PHCP T18F variant (Hydrogenophilus thermoluteolus). The experiment in a line: AUC; sedimentation velocity of the single variants, data not shown; the same analysis as for the wild-type.
In assay [7] the target is PHCP F11T variant (Hydrogenophilus thermoluteolus). The assay is described as above.
Assay [8] concerns the target PHCP L76V variant (Hydrogenophilus thermoluteolus). The assay is described as above.
Assay [9] concerns the target PHCP T17E variant (Hydrogenophilus thermoluteolus). The description is as above.
Assay [10] addresses PHCP T17E/A20G/L76V triple variant (Hydrogenophilus thermoluteolus). The experiment in a line: AUC; sedimentation velocity, 5 μM protein, 10 mM Tris-HCl (pH 7.5) with 100 mM NaCl, 20°C, 42,000 rpm, c(s) model in SEDFIT; n = 1.

Broadly, the stoichiometry N is the number of molecules, sites or subunits per partner or assembly. For the molecule “recombinant PHCP wild-type (natural protein)”, in assay [1], the population of the dimer species stood at 99.9% and the stoichiometry N turned out to be 2.
In turn, PHCP F71D variant (natural protein) gave a stoichiometry N in assay [2] of 2.
The molecule PHCP A20G variant (natural protein) came in with a stoichiometry N in [3] of 2.
With `[C-]#[N+]CCCC` [butyl-isocyanide], the visible absorption spectroscopy result in assay [4] is “PHCP is able to bind CO, NO, and large ligands such as butyl‐isocyanide and imidazole”.
In [5], “PHCP F11T/T18F/F71D triple variant (natural protein)” displayed a population of the dimer species of 97.7% and a stoichiometry N of 2.
For PHCP T18F variant (natural protein), the stoichiometry N in assay [6] worked out at 2.
PHCP F11T variant (natural protein) showed a stoichiometry N in [7] of 2.
With PHCP L76V variant (natural protein), the stoichiometry N in assay [8] amounted to 2.
PHCP T17E variant (natural protein) returned a stoichiometry N in [9] of 2.
In assay [10], “PHCP T17E/A20G/L76V triple variant (natural protein)” displayed a population of the dimer species of 91.1% and a stoichiometry N of 2.
